{"source": "patent US6721663B1", "about": "“Method for manipulating protein or DNA sequence data in order to generate complementary peptide ligands” (Proteom Limited, priority 1999, dated 2004)", "key": {"[1]": {"biological_target": "IL-1b (Homo sapiens, UniProt P01584)", "sequence (P01584 117-269)": "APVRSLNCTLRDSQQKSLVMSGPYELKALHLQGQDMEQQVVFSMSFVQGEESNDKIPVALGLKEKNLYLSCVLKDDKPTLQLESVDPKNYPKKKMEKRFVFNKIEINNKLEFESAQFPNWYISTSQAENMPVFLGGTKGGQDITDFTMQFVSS", "assay": "ESAP assay of IL-1b biological activity", "format": "cell-based", "conditions": "FIG. 14", "text": "(§1) The program picked out antisense region LITVLNI (SEQ ID No. 8) in the IL-1R receptor."}, "[2]": {"biological_target": "T1, IL-1 (Homo sapiens, UniProt P01584)", "T1 sequence (P01584 117-269)": "as above", "assay": "Serum Amyloid IL-1 assay", "format": "cell-based", "conditions": "FIG. 14", "text": "as §1"}, "[3]": {"biological_target": "T1, IL-1", "assay": "Direct binding to IL-1 by biosensing techniques", "text": "as §1"}}, "data": [{"substance": "LITVLNI (listed as Homo sapiens) [antisense region in the IL-1R receptor picked out by the ALS program]", "values": [{"measurement": "inhibition of the biological activity of IL-1b in ESAP assay", "setting": "[1]", "result": "inhibit the biological activity of IL-1b"}, {"measurement": "inhibition of IL-1 activity in Serum Amyloid IL-1 assay", "setting": "[2]", "result": "The same effect is also seen"}, {"measurement": "direct binding to IL-1", "setting": "[3]", "result": "bind directly to IL-1"}]}, {"substance": "LTILINV (Hypothetical sequence) [scrambled peptide control of LITVLNI, reference compound]", "values": [{"measurement": "inhibition of the biological activity of IL-1b in ESAP assay", "setting": "[1]", "result": "The effect is dependent on the peptide sequence"}]}]}
